Reference: patent EP4713368A1 (dated 2026)

Target: T1, human CD28 (human, UniProt P10747 19-152, limits assumed)
T1 construct: also called Cluster of Differentiation 28; Tp44
Test: selection from yeast-presented heavy chain-only libraries (HCAb format)

binding result: binds
B1: Ab No. 83 (antibody, V domains shown)
VH: EVQLLESGGGLVQPGGSLRLSCAASGFTFSDHSMNWYRQAPGKERELVSAISGSGGSTYYADSVKGRFTISRDNSKNTLYLQMNSLRAEDTAVYYCNARRYQSSGGDVWGQGTQVTVSS
notes: HCAb format (dimer of VH-hinge-CH2-CH3, no VL, CL or CH1)
